Here are results for 27 sequences from the domain aggregation screens of Martell et al. (2025).
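Note: 20 min heating vs room temperature control held 20 min.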

The nature of this data set: soluble fraction after stress (log2 fold change); higher = more stays soluble; pooled small domains, quantitative proteomics. Particulars: stress: 75 degC.
In the case of “HMYIVVPDLSKKDINEVANILAAQSLRFQVIDSANFRSDFPKNAVISQKPLAGSEVKVNKKIYLQLNPS”, the “soluble fraction (log2)” value is -0.43.
As to “HMYLEARVKSTTPILSKPNELGKSLGKLYTNDFVALVSLHKNGLDSYYRTANGGYINAADVVIDRDV”, the “soluble fraction (log2)” value was -1.49.
In the case of “HMYLPLREVVFNALRTAIIHGEFKPGERLMEMHLAKSLGVSRTPVREAMRMLELEGLVVMIPKKGAEVAR”, the “soluble fraction (log2)” value was -2.93.
As for “HMYMKMNDRIRSRRKELKMTQSVLAKLVGVNRVTITGWESGDYKPGGENLQALAAALEKTPQWLLDGKD”, the “soluble fraction (log2)” value is -2.82.
In the case of “HMYMTTADADMWKYVNTGRYNNDIQLMEEYKNRSMDSFEVITPEQQRKYNKAAMNLNSYYAWADPSYKPNP” it was -0.483; in that of “HMYMWQVEDLLRANELDIENIKKTIIDHYQLDDAQKSELTRWYEDLINMMRLEGVTKEGHLQINK”, -2.02; in that of “HMYNSYALTARELELVNYVLKGNSRREMAEDSGLKENTVASYMKRLYRKIKVHSRKELKELFM”, -0.151.
With “HMYPDNEQTLSKLAFEFFKKRNIPISQSNINQIVTKSLGDRENLYNELLKIENFSTSGKKLTDNVIKKLIN”, the “soluble fraction (log2)” value is -0.0858.
In the case of “HMYPFSEETLKEKIREYLKTNRSINRRVLEREFYIRKQTALNWLNRLVDSGFLIKEGVRNSPVYFLAE” it was -0.884; in that of “HMYPMQNYSTIIGVIELRQQSVGYATTQKRYGIGSSTVTLIMKRFKELGLTLEELRAMPPKAVEVAFYPPE”, -1.69.
“HMYPNEFPRKVMSVFESSGLEMFRTIEMLLAIPEYETPLPYGSGVSRSDIFVLAKSAGNLVSITV”: the “soluble fraction (log2)” value was -0.117.
For “HMYQFFVDPGQIQGKRVTITGSDVNHIKNVLRMRIGEEIAVSNGKDGLEYRFGIDEILEDEVIGTLRFVKE”, the “soluble fraction (log2)” value was -1.61.
For “HMYRIGELAKLADVTPDTIRYYEKQQMMDHDVRTEGGFRLYSDNDLQRLKFIRYARQLGFTLEAIRELLSI”, the “soluble fraction (log2)” value was -2.27.
Regarding “HMYRWSEEIFEKLRSDIMAALDLSREQNDEEIYRFIETEVEEYSQNNLLTLKEREQLEHLLFNSL”, the “soluble fraction (log2)” value was -1.44.
On to “HMYSKVSFTVSVGMTSERVSASLKALGIIDDSAKFNRYLVSNGYSTRIKVGTVELQAGQSYAEIASKLV”, for which the “soluble fraction (log2)” value was -3.88.
Take “HMYSLSELERIKNFLTGYMSDYSIMMLDANEITNQVDISLKDYSDDNIESIKAAVLSHGGKTDYLNFIDDS”: the “soluble fraction (log2)” value is -0.926.
Consider “HMYSQEEKRYMEIMEIKPQELSAENLKKQYKKLVKKYHPDLHQDDKQAAEEKFKQLTNAYQVLMRRF”, for which the “soluble fraction (log2)” value is -0.474.
“HMYSSASKEEIDQLMKRLILNLDAKGYFWPQDKEKSLKLYLHNLFSKLPLNSSDIRFLHGLIRALSEE”: the “soluble fraction (log2)” value was -1.3.
“HMYSSIIGIAFTRAENKPAAPTGGSYSNPHPVDGNWKAAPYDGDGNLWYSIRHFNENVDIQDREWSDPTLG”: the “soluble fraction (log2)” value is -0.238.
In the case of “HMYSYSGSVINTYKVPVSVVLKDANGSAIASWDLPVDQSLGISAKDIATSSGTIEITGDGVNETKTVTFTK” it was -0.12.
As for “HMYTGSEGMAGLEGRAVTEVGPEAGTVLVKGEYWQARSDEPIATDRKIRVIRLEGLRLRVAEIHPEG”, the “soluble fraction (log2)” value is -0.45.
In the case of “HMYTPDYLSDLMVRMAHHSTAIEGNTLTQGETKSVLVDGYIPRAMDMRELNEVLNYKAFMTFLVE” it was -0.0939.
Turning to “HMYTTHTQSELNEAARFNGRATYQKGIYYNESKKEHFKVVNGKYQALPNVKQVNGDSWIDKTGITHKG”, the “soluble fraction (log2)” value is -0.324.
With “HMYTVQQLARLAGITPRTLRHYDAIGLLKPTRVGENGYRYYGSEALLRLQSILLYRELDMPLEDIRRVLDS”, the “soluble fraction (log2)” value was -3.5.
In the case of “HMYVPEVPVPDLLGRSEEEAKNLIEDLGLVFKVSKREYSKEYDEGHVMEQSVDEGAKVKENYPVEVVISR” it was 0.181.
Take “HMYYDDEELDDYRGKASDAYTAAEVEQFEEVLTTMRPEEVHGWLRSLQLRGVALPDALKDEAYMIVSEQAE”: the “soluble fraction (log2)” value is -0.0106.
Consider “HMYYIITNGKYWVIENPIRPGEYMESTKSSNAKQFTFKQAKNLLNARSKKLGWIRNGYSMVGED”, for which the “soluble fraction (log2)” value was -2.46.
